Results on one molecule are retold here after article PMC4752221, “Nuclear Export of Pre-Ribosomal Subunits Requires Dbp5, but Not as an RNA-Helicase as for mRNA Export” (PLoS ONE, 2016).

The target in this experiment is T1, His-Mtr2+Mex67 heterodimer (S. cerevisiae, UniProt Q99257 1-599; P34232 1-184).
T1 construct: Mex67 of S. cerevisiae, co-expressed with His-Mtr2; Mtr2 of S. cerevisiae, His-tagged; also called His-Mtr2 and Mex67; Mex67-Mtr2; source: E. coli BL21 DE3, co-expressed, purified (Ni-NTA agarose)
T1 sequence (looked up) 1: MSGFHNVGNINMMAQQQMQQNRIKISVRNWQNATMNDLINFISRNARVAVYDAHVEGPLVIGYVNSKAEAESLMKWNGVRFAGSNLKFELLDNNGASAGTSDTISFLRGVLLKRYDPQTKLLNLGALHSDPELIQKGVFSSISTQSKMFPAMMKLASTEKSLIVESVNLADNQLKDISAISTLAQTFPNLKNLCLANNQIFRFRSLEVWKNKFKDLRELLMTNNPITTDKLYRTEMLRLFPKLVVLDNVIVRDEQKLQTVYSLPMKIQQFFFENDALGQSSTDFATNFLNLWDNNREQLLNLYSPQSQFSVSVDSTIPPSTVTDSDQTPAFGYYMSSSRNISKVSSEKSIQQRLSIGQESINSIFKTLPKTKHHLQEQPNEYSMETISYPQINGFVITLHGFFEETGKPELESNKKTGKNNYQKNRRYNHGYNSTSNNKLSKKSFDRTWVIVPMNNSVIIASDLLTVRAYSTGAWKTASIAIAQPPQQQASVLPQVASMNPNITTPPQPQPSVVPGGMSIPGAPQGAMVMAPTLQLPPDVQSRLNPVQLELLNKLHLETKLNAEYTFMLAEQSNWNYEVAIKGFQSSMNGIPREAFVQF
T1 sequence (looked up) 2: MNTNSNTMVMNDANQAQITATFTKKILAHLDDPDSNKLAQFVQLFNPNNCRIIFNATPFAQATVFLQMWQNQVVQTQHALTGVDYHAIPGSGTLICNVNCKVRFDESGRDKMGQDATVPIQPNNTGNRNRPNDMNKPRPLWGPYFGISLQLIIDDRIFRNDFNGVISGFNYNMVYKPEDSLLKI
Description: pull-down; 100 μg purified GST-Dbp5 (mixed with bacterial lysate) held on Glutathione Sepharose 4B beads, washed, then 28 μg purified His-Mtr2+Mex67 added, 1 h at 4°C; 20 mM HEPES pH7.5, 100 mM NaCl, 4 mM MgCl2, 10% Glycerol, 0.1% NP-40, 1 mM DTT; with or without 1 mM ATP and 0.2 mg/ml RNase A (binding increased by ATP, not influenced by RNase A); Western blot and Coomassie. To be noted: both partners purified.

B1: GST-Dbp5 (natural protein, S. cerevisiae, UniProt P20449 1-482, looked up)
chain: MSDTKRDPADLLASLKIDNEKEDTSEVSTKETVKSQPEKTADSIKPAEKLVPKVEEKKTKQEDSNLISSEYEVKVKLADIQADPNSPLYSAKSFDELGLAPELLKGIYAMKFQKPSKIQERALPLLLHNPPRNMIAQSQSGTGKTAAFSLTMLTRVNPEDASPQAICLAPSRELARQTLEVVQEMGKFTKITSQLIVPDSFEKNKQINAQVIVGTPGTVLDLMRRKLMQLQKIKIFVLDEADNMLDQQGLGDQCIRVKRFLPKDTQLVLFSATFADAVRQYAKKIVPNANTLELQTNEVNVDAIKQLYMDCKNEADKFDVLTELYGLMTIGSSIIFVATKKTANVLYGKLKSEGHEVSILHGDLQTQERDRLIDDFREGRSKVLITTNVLARGIDIPTVSMVVNYDLPTLANGQADPATYIHRIGRTGRFGRKGVAISFVHDKNSFNILSAIQKYFGDIEMTRVPTDDWDEVEKIVKKVLKD
notes: Dbp5 (Rat8) of S. cerevisiae, GST-tagged, DBP5 in a pGEX backbone; also called recombinant GST-tagged Dbp5; source: E. coli Rosetta 2, purified (GSTrap 4B Glutathione Sepharose)
In the case of B1, the binding result is given as “binds”.
